Experiment [1] has as its target T1, Drosophila melanogaster peptidoglycan-recognition protein-SA (PGRP-SA), T7-tagged (D. melanogaster, UniProt Q9VYX7 27-203).
T1 construct: also called PRGP-SA
T1 sequence (looked up): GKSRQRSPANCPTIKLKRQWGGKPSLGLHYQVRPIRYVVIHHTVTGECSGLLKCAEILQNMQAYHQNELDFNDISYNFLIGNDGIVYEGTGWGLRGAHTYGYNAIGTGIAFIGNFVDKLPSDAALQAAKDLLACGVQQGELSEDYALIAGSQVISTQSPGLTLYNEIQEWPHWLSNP
In words: ELISA; […]) or 5% BSA ([…]. To be noted: both partners purified. (In general: An ELISA detects its analyte on a solid surface through an enzyme-linked reagent.)

The target in experiment [2] is T2, human recombinant PGRP-S (also called PGLYRP1) (human, UniProt O75594 22-196).
T2 construct: also called PRGP-S; human PGRP-SA ortholog
T2 sequence (looked up): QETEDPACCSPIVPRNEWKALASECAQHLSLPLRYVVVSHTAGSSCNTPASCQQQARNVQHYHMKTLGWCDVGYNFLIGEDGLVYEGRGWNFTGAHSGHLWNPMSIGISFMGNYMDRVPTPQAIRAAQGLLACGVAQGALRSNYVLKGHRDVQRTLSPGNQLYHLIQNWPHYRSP
In words: ELISA; […]) or 5% BSA ([…]. To be noted: both partners purified.

B1: PA20, 20 kDa subunit of anthrax toxin Protective Antigen (PA83) (domain or fragment)
chain: EVKQENRLLNESESSSQGLLGYYFSDLNFQAPMVVTSSTTGDLSIPSSELENIPSENQYFQSAIWSGFIKVKKSDEYTFATSADNHVTMWVDDQEVINKASNSNKIRLEKGRLYQIKIQYQRENPTEKGLDFKLYWTDSQNKKEVISSDNLQLPELKQKSSNS
notes: also called pelB-PA20-6His
B1: the binding result in experiment [1] and in experiment [2] was “binds” each time.

(Values after publication PMC7458312, “Anthrax toxin component, Protective Antigen, protects insects from bacterial infections” (PLoS Pathogens, 2020).)
